Reference: patent US20220144953A1 (published 2022)

Target: Parent
Assay: antigen titration binding curve (Norm. RFU)

Kd: 165 nM
B1: Mouse (receptor)
chain: FKVTTPYSLYVCPEGQNATLTCRILGPVSKGHDVTIYKTWYLSSRGEVQMCKEHRPIRNFTLQHLQHHGSHLKANASHDQPQKHGLELASDHHGNFSITLRNVTPRDSGLYCCLVIELKNHHPEQRFYGSMELQVQAGKGSGSTCMASNEQDSDSITAA
